Measured values published in paper doi:10.1101/2025.08.18.670902, “Pyrimethamine inhibits mutant NRF2 as a molecular glue” (bioRxiv, 2025).

Target: T1, Kelch fragment (Ala321-Glu611 of human KEAP1 protein) (human, UniProt Q14145 321-611, biotinylated (site not stated))
T1 construct: KEAP1, human, Kelch fragment Ala321-Glu611, printed MW 34,038.03 Da; Captured on a streptavidin chip through biotin; also called Kelch fragment of KEAP1; biotinylated Kelch; source: expressed in vitro, purified, biotinylated, validated by LC-MS
T1 sequence (Q14145 321-611): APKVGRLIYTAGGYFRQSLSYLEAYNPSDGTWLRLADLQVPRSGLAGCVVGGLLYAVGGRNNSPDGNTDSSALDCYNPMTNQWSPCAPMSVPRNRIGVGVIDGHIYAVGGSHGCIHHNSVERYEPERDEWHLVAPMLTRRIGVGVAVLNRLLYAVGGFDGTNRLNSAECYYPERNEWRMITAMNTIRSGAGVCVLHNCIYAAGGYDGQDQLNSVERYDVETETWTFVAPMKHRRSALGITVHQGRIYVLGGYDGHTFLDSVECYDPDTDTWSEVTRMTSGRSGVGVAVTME
Assay: SPR; Biacore S200, biotinylated Kelch immobilised on a streptavidin chip; peptide analyte in 2-fold dilutions 200 μM to 0.39 μM, 30 μl/min, 90 s association, 180 s dissociation, analysis at 15 °C; without PYR
Conditions: both partners purified

B1: DLG^WT peptide (NRF2 residues 17-40) (peptide)
peptide: MDLIDILWRQDIDLGVSREVFDFS
notes: NRF2 (NFE2L2), human, residues 17-40 with the DLG motif; also called 24-mer peptide; source: synthetic peptide
**Q.** Does B1 bind?
**A.** binds
